# Experimental data as given in patent US20240026407A1, “MODIFICATION OF SAPONINS” (GLAXOSMITHKLINE BIOLOGICALS SA, priority 2020, published 2024).
# Tests used:
# Assay type in all cases: biochemical, Quillaja saponaria
# [1] = Experiment 6-1: screening of rhamnosidases for derhamnosylation of saponins in treated bark extract (2%), QS-17 2296 to QS-18 2150 (PAR %); conditions: TBE 2%, pH 7.5, 30 degC, 18 h; TIC peak area ratio percent of rhamnosylated starting saponin to derhamnosylated product, LCMS/MS; negative controls 4.876, 5.225
# [2] = Experiment 6-1: screening of rhamnosidases for derhamnosylation of saponins in treated bark extract (2%), QS-17 2310 to QS-18 2164 (PAR %); conditions: TBE 2%, pH 7.5, 30 degC, 18 h; TIC peak area ratio percent, LCMS/MS; negative controls 3.061, 2.429
# [3] = Experiment 6-3: screening of rhamnosidases for derhamnosylation of saponins in crude bark extract (80%), relative % of Left, Middle and Right Peak by UV HPLC; conditions: CBE 80%, pH 7.4, 30 degC, 19.5 h; for Left Peak: mainly QS-17 family, negative control 27%; for Middle Peak: mainly QS-18 and desglucosyl-QS-17 family, negative control 48%; for Right Peak: mainly QS-21 family, negative control 26%
# Procedure, shortened: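 Clarified lysates of expressed rhamnosidase variants were incubated with crude bark extract (pH 7.4, final 80%) at 30 degC with shaking for 19.5 h, then quenched with MeCN+2% AcOH. UV HPLC gave relative % of Left (QS-17), Middle (QS-18/desglucosyl-QS-17) and Right (QS-21) peaks.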
# [4] = Experiment 6-2: screening of rhamnosidases for derhamnosylation of saponins in treated bark extract (25%), relative % of Left, Middle and Right Peak by UV HPLC; conditions: TBE 25%, pH 7.4, 19.5 h; for Left Peak: mainly QS-17 family, negative control 24%; for Middle Peak: mainly QS-18 and desglucosyl-QS-17 family, negative control 50%; for Right Peak: mainly QS-21 family, negative control 26%
# [5] = Experiment 6-1: specificity of rhamnosidases towards other rhamnose residues (C3 saccharide rhamnose, C28 saccharide rhamnose); conditions: TBE 2%, pH 7.5, 30 degC, 18 h; LCMS/MS; negative controls 0.18, 0.17
# [6] = Experiment 6-1: screening of rhamnosidases for derhamnosylation of saponins in treated bark extract (2%), desglucosyl-QS-17 2134 to QS-21 1988 (PAR %); conditions: TBE 2%, pH 7.5, 30 degC, 18 h; TIC peak area ratio percent, LCMS/MS; negative controls 2.719, 2.158
molecule,measurement,setting,value
"1052 (protein, listed as Microbacterium testaceum) MTTDTRVAAVKAELRTDSPFVATPTPRLTWRVETSTPSWRQASAEITDGATSVPLEGAESALVAWPFAPLEPGERREVRVRVTGVDGAVTAWSAPLAVEAGFLAPDEWVAEPIGLADPEREAQPALVQTAFRLDRPVRRALLLWTALGSAEPEINGRAVSDDVLAPGWSATRDRLVHETVDVTDLLVEGDNVVGATLAGAWYTERYGFFTFTDRIYGDQPAFLAQLRVTFADGTVETVAPTGSAWTATGDAEIVTSGIYAGEHQDLRLRAPWSTPDATTSGTDRRWAPARVGVVARPGHENVPLPEARIAEPVRRHESLPVVARLATPSGGEVLDFGQNLVGRLRLRVRGEAGTTVTIRHAEVLDEGELALRPLRNAKAEASFVLSGGDDVLESRFSFYGFRYAQITGIDVTDAQVEAVVLHSDMERTGWFTSSHALVNRLHENVVWGMRGNFLALPTDCPQRDERLGWTGDLQVFAPTASFLYDCDGFLTSWLRDLALEQERAGGIVPLVIPAALPSFAGGGPVAAWGDAAAVTPTVLHERFGDIGVLAAQYPSMRAWVEAVRADAGDSGLWAGRMQLGDWLDPSAPPDQPGKAKVDGDIVATAYFARSLRQVAEAAALLENTADAETYHALAERSRRAFVSEYVTPAGRMMSDAPTAYALALAFDLVQDAPTRAALADRLAALVRESGYRISTGFVGTPIIADALSDGGHHDAAERLLLQTQCPSWLYPVTQGATTVWERWDSLLPDGSVNPGEMTSFNHYALGAVADWLHRTVAGLAPAAPGYRRLRVAPRPLAAFEHASARHLTAYGPAEVSWEREPGSDVVRVRAIVPPNTTAEVALPGTLADGSEAPAEVGSGTHEWRVTLPAVPVRPPLPGLEAMLADVIDDPRAYAALLDALEETAPERVEGVRSGTVWGAGRPLASALMFTPPDVLARVDRAVRDATA",QS-17 (PAR %),[1],0.000%
same,Peak57 (PAR %),[2],0.000%
same,Left Peak,[3],25%
same,Middle Peak,[3],49%
same,Right Peak,[3],27%
same,Left Peak,[4],9%
same,Middle Peak,[4],62%
same,Right Peak,[4],30%
same,ratio PP/QS-21,[5],0.16
same,Peak75 (PAR %),[6],0.000%
"1017 (protein, listed as Kribbella flavida) MSFPAAPARLRFEHRTDPGPVLGIGTATPRLSWQVPTAPDDYRQAGYEVEIARGDAAPEQYTVDSADQVLVPWPGTPLAARESATVRVRVRGDGDWSQWSDPATVEAGLLSADDWTARFVSPRENAGHEAPAPLIGGVIDLPADIAQARLYATAHGIYEPTLNGTRVGDEQLAPGWTAYEQRLRYQTYDVTDLVAPGENRLELLVGNGWYRGRLGFHGKHSLYGDRLAVLAQLEVTTATGEVKVLASDGTWTTRETNVLADDLYDGQHVDLRRTLGEPGPVDVLDADLSLLVAPDGPPVRVTDVLPAKAVTTSPAGKTLVDFGQNVVGRLRLRVRGGAAGDEIVLRHAEVLEDGELGVRPLRTAKATDSFVLAGPDEVTLEPTLTFHGFRYAEITGVPDLRAEDVEAVVVGSDLRRTGWFESSHPLLDRFHENVVWGMRGNFLDVPTDCPQRDERLGWTGDIQVFSPTASFLFDTAGFLTNWLADLIAEQHKDGSVPFVVPDVLRQPGPATAAWGDAATIVPWVLYERTGDAGLLARQLPSMRAWVDRMAGLAGDDLLWVGGFQFGDWLDPTAPPDDPFRAKADPDVLATAHLARSAEVVALAAEVVGAGELAREYAELAARVRQAFAAEYTTGSGRVLSDAATNYALALQWALLPTEAQRKRAGERLADLVRTAGFRISTGFVGTPLMADALADSGHPDLAYRLLLETGCPSWLYAVTMDATTVWERWDSMLPDGSINPGQMTSFNHYALGAVADWMHRRVAGLAPGDPGYRRIVVDPLFTAHLTKASARHLTPYGEAAVAWSRSGGRVRLEVTVPVGARARVAVPGESAPVEVGHGTHEWTADDVYGETPPLPADATIRQLIDHEPSWTTLAAAATRTGIVADDAELAGRLERYLDHPATELVDAVSPRGFSPSAEALQAELDSVLGR",QS-17 (PAR %),[1],0.017%
same,Peak57 (PAR %),[2],0.004%
same,Left Peak,[3],17%
same,Middle Peak,[3],56%
same,Right Peak,[3],27%
same,Left Peak,[4],6%
same,Middle Peak,[4],63%
same,Right Peak,[4],31%
same,ratio PP/QS-21,[5],0.19
same,Peak75 (PAR %),[6],0.000%
"1073 (protein, listed as Streptomyces scabiei) MSHERATAEGTSAAARTAHRPHESPVHGLTVEHRTDPLGVDADRPRFGWRTRSASRGWRQGSYQILVATSPELLTPASADVWDSGRVRSADSVAVRYAGVPLRASTRYHWTVRVWNTEGRAAGTASPAVFETGLMSTDGVGGWDGARWIGMKGKVPGSPGAPLLRTRETLGCGDGRTVGDARLYISALGVYEAHVNGERVTVRQDGERTLELLPPGWTNYDARVDYLTYDVTVLLADGPEVTLAVVLGNGWYNGRVSEGSTYHTQSGNALAVKAKLLIRYTDGTTRSVVTGTSGGWKATDTGPFRADDLYDGQTYDARRELPGWTAPGFDDTAWSDVEHIAFEDRYPGVRLRAYPGESARFVDRWDRRPQSVTVITGVTGQDGSPHGRGRVVVDPARTVTDPAKAATAQVTLAAGETAVFDLGQNMVGVPRYGVRGPAGARVEFRFAEILNDDSAGADGPEGSLYRANLRSAKATSTYILKGDPEGETHQDSLTFYGFRHVSVTASETVTVTGLTGRVATSAVRETGTVTTNDPHVDKLASNIRWGQRGNYLWVPTDCPQRDERLGWTGDTQVFAVTGLYNADAYTFLSHFQDTVVDSQAIYGADGAQYTGVAPGGRYNFPGGGSGWADCGVVLPWTLWQMTGDTTVVEDNWPSMVRYLDWIRRQTGDTYAGQGSLTGDWLAPQKTSAQLMSDAYYGYSAHLMARMARAIGRAEEAATYERLFGRIRQAFIARYLSTEGGRVTVRSGLGDASPIEPGSDPNEKTEDNSQSALLWVLKLGFYENEAQRRALVALLADDIRNDAAHKEAHPDSVRVRYPENTLSVGFLGVNILAPVLTDEGRADLAYELLHQDALPSWLFSVKNGATTVWERWNSWAEDAGFGPVGMNSFNHYAYGAIMEWMYAYMAGIARDPDAPGFKRFLLQPHLDPTGRITRVRATHESPYGEILSAWEVGSGGRRLAYDVAVPANSEATLRVPAVSADSVREGGTPLADVAGVRFLGHTEGVSSYLLPSGRYRLSADLR",QS-17 (PAR %),[1],0.007%
same,Peak57 (PAR %),[2],0.000%
same,Left Peak,[3],20%
same,Middle Peak,[3],52%
same,Right Peak,[3],28%
same,Left Peak,[4],6%
same,Middle Peak,[4],62%
same,Right Peak,[4],31%
same,ratio PP/QS-21,[5],0.18
same,Peak75 (PAR %),[6],0.000%
"990 (protein, listed as Streptomyces bingchenggensis) MISRRNLLGTATAAGPALTGLTALAATTGKAEAAEPGYGGLRVEKTTVEYADRPLGLDAPHPRLSWQLGSDRRNQSQSAYQLRVATSPGRIGAPDVWDSGKVSSHQSVLVPYDGPKLRARTRYHWAVRVWDGQGRPSPWSEPTWWETGLGTEDEGAARWVAAPDTVTRGPDLAKADWVWYPEGDPASSAPAGTRYFRGSLDVSGSVRLARLALVADDGFTAWVNGTEIGGRAPVQENWRHPVVVDVTALLREGANTIAVAAVNASSSPAGLLGVLELTDTDGVRSLTTSAAWKATDTEPSGDWHLPAYDDGGWAAAKVLAPWGGGPWGRVRAAQRPALVRRDFRLAAKPVARARLYSTALGLYEAEINGHRVGRDQLAPGWTDYRKRVQYQTYDVTDLLRHGANAIGVILASGWYSGSVAWFGQELYGERPALRAELEVTYADGSTDRVTADTHWRCATGPILTADLMAGEEYDARLEVSGWSSPAFDDSLWQSVDVVPADTTSAVSVVAQTDAPVRVARELAAVRVTEPKPGVYVFDLGQNMVGSVRLRVRGEAGRTVRLRHAEVLDKDGMLYTANLRTAQATDSYTLKGSGTETFEPRFTFHGFRYVEVTGYPGTPDTKSVTGRVMHTGAPFTMSFTTDVPMLDQLHRNITWGQRGNFLSVPTDTPARDERLGWTGDINVFSATAAYTMESARFLAKWLRDLRDGQSDAGAFPDVAPRIGNLGEGTAGWGDAGVTVPWNLYQAYGDRQILADNFPAMRAWITYLEQHSSGCLRPAEGYGDWLNVADETPKDVIATAYFAHSTQLVAKAARVLGHDPAPYDTLAAKVREAFNRAYVSADGTVKGNTQTAYVLALSMDLLPDSARTPAAERLVELIRSKDRHLSTGFLGTPRLLPTLTATGHTDVAYQLLEQRTFPSWGYQIDRGSTTMWERWDSLRPDGSFQDPGMNSFNHYAYGSVGEWMYQNITGIGMGEPGFRSIVIRPRPGGDVHEANGRYDSLYGPITTRWTRANDGAFTLDVSVPVNTTAEVWLPAATSRAASGISHAGATFLRLDDGCAVYGVGSGPYRFTAP",QS-17 (PAR %),[1],5.144%
same,Peak57 (PAR %),[2],0.188%
same,Left Peak,[3],25%
same,Middle Peak,[3],47%
same,Right Peak,[3],28%
same,Left Peak,[4],23%
same,Middle Peak,[4],51%
same,Right Peak,[4],26%
same,ratio PP/QS-21,[5],0.21
same,Peak75 (PAR %),[6],2.151%
